From patent US20090010920A1

Target: FcγRIIIa on human PBMC effector cells (heterozygous V158/F158 or allotype not stated) (human) (UniProt P08637)
Experiment: cell-based or functional assay

Sequence of FcγRIIIa on human PBMC effector cells (heterozygous V158/F158 or allotype not stated) (human) (P08637 17-254): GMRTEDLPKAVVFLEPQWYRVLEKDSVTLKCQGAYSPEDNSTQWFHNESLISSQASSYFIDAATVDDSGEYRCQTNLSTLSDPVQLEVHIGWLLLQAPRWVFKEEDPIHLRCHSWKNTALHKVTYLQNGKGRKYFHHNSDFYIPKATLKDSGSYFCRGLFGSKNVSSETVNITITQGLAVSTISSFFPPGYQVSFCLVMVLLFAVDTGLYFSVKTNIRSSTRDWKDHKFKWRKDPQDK

Row | ADCC EC50, DoHH-2 target cells, human PBMCs [ng/mL] | ADCC log(EC50), DoHH-2 target cells, human PBMCs | Substance
1 | 3 | 0.49 log(ng/ml) | S239D/I332E alemtuzumab (antibody)
2 | 4 | 0.6 log(ng/ml) | V264I/I332E alemtuzumab (antibody)
